Source: the MegaScale stability set (Tsuboyama et al. 2023)

B1: r11_951_TrROS_Hall (parent)
chain: KKKYVIKVYFEDTGKEVEIEAESKEEALEAAKRLAEELGLKIKKVEIYP

Variants of: B1
Assay: folding stability dG (cDNA display proteolysis); higher = more stable
Conditions: PBS, room temperature

Folding stability dG [kcal/mol]: each site, then its substitutions
I6: Y 4.79, A 4.12, C 3.63, H 2.82, N 1.53, E 1.26, D 0.044
E25: G 4.15, C 4.28, N 4.16, R 4.22, S 4.12, M 4.32, L 4.18, K 4.22, V 4.36, W 4.25
A31: K 2.42, I 4.2, E 2.11, C 4.18, L 4.21, P 3.02, M 4.4, V 4.45, S 4.2
V5: I 4.29, Y 4.37, H 4.32, Q 4.27, S 4.3, L 4.13, K 4.63, T 4.47
E20: C 4.28, H 4.42, P 4.29, G 4.27, R 4.29, L 4.36, F 4.25, W 4.49, Q 4.43
A21: H 4.3, R 4.32, L 4.24, T 4.37, M 4.26, P 2.03, E 4.25, I 4.44, S 4.7
E29: T 4.71, A 4.75, C 4.58, D 4.44
E37: F 4.73, G 4.55, R 4.69, T 4.61, V 4.6, M 4.67
F10: D 2.86, C 3.67, A 2.98, L 3.94, R 1.98
Y4: G 2.47, S 3.36, D 2.33, T 3.74, P 2.44, H 3.58, A 3.08
K44: Y 4.34, A 4.26, N 4.41, E 4.25, D 3.95, P 2.69, F 4.3
A35: D 2.58, H 3.63, P 2.83, T 3.84, S 4.35
V17: I 4.4, C 4.25, K 4.07, H 4.4, D 3.74, T 4.29, N 3.71, Q 4, W 4.53
E11: M 4.8, S 4.63, V 4.83, T 4.48, F 4.94, G 4.49
K32: W 4.78, T 4.41, C 4.22, Y 4.9, M 4.68, E 4.28, R 4.26, P 3.09, S 4.42
P49: G 4.49, K 4.5, W 4.59, R 4.5, A 4.33
K41: G 4.07, P 4.25, F 4.44, M 4.38, T 4.32, H 4.22
G39: Y 3.82, F 4.14, W 3.5, R 4.43, V 4.03
A27: H 2.78, F 3.8, C 4.23, V 4.38, K 1.74, R 1.78, S 4.03, Y 3.79, L 4.34
V45: F 4.48, I 3.98, T 4.16, H 4.08, A 3.96, E 3.18, K 3.16, L 4.08, N 3.32
L34: W 4.57, G 3.15, K 4.35, V 4.51
V8: Y 4.22, P 0.881, H 1.38, M 4.28, D 1.26, I 4.47
K15: I 4.22, R 4.19, S 4.28, A 4.22, D 4.17, N 4.63, P 4.29, T 4.5
I42: F 4.01, T 2.88, P 3.23, S 2.64, K 2.18, C 3.57, L 4.32, Y 3.75
K43: L 4.36, I 4.43, S 4.15, T 4.32, G 4.25, R 4.64, Q 4.26, F 4.53, M 4.44, W 4.81
E18: G 4.06, N 4.16, S 4.25, V 4.35, R 4.19, P 3.84, H 4.32, C 4.4
S23: P 2.12, N 4.38, W 4.13, D 4.31, K 3.92
G14: W 4.61, P 4.26, Y 4.5, H 4.27, F 4.73, K 4.37
Y9: F 4.25, E 4.28, W 4.86, G 3.74, S 4.16, C 3.95, T 4.22, R 4.14, A 3.91, D 3.41, H 4.26
I19: P 0.94, M 4.5, Y 4.49, W 4.51, H 3.61, R 3.57, V 4.19, F 4.33, Q 3.59, A 3.98
D12: N 4.42, Y 4.66, F 4.64, H 4.49, E 4.31
K24: H 4.45, D 4.37, Y 4.5, C 4.53
K7: M 4.1, F 4.21, V 4.1, T 4.07, P 1.45, Q 3.75, H 4.19
E26: P 3.07, R 4.39, T 4.28, F 4.83, C 4.23, I 4.22, Y 4.83, H 4.5
K3: S 4.52, C 4.24, E 3.9, M 4.59, Q 4.28, Y 4.54, F 4.64, G 4.03, L 4.63, T 4.4
E16: S 4.38, M 4.28, C 4.05, A 4.49, F 4.5
R33: K 4.39, E 4.03, Y 4.63, P 2.02, A 4.04
Y48: C 4.46, L 4.44, V 4.45, Q 4.37, F 4.64, G 4.33, T 4.52
L40: I 3.96, M 4.31, G 3.56, K 3.93, S 3.9, F 4.6
L38: K 4.2, I 4.29, N 4.15, M 4.56, Q 4.21, C 4.07, R 4.34
I47: H 4.35, V 4.33, W 4.49, F 4.32, M 4.53, N 3.89, A 4.17, K 3.7
E36: L 4.68, P 3.05
A30: K 4.33, M 4.47, H 4.57, S 4.45, T 4.38, G 4.4
K1: N 4.47, F 4.54, I 4.6, Y 4.52, D 4.22, A 4.25
L28: D 4.11, F 4.31, A 4.28, N 4.33, G 4.17, C 4.12, S 4.2, M 4.46
T13: E 4.4, G 4.52, C 3.6, V 4.4, K 4.48, Q 4.32
K2: W 4.66, L 4.61, I 4.36, F 4.57, V 4.34, E 4.29, T 4.46
E22: W 4.64, F 4.46, Y 4.52, Q 4.11, A 4.36
E46: V 4.66, M 4.49
